Data: patent publication US20240239878A1

How the values were obtained:
[1] = biological target: human DLL3 on SHP-77 cells (human) (UniProt Q9NYJ7); assay: flow cytometry, SHP-77 cells
[2] = biological target: Cynomolgus monkey DLL3 on HEK293 cells (HEK293-cyno DLL3) (Cynomolgus monkey); assay: flow cytometry, HEK293-cyno DLL3 cells
Sequence of Cynomolgus monkey DLL3 on HEK293 cells (HEK293-cyno DLL3) (Cynomolgus monkey) (Q9NYJ7 other isoform, or with tags, fused parts or gaps): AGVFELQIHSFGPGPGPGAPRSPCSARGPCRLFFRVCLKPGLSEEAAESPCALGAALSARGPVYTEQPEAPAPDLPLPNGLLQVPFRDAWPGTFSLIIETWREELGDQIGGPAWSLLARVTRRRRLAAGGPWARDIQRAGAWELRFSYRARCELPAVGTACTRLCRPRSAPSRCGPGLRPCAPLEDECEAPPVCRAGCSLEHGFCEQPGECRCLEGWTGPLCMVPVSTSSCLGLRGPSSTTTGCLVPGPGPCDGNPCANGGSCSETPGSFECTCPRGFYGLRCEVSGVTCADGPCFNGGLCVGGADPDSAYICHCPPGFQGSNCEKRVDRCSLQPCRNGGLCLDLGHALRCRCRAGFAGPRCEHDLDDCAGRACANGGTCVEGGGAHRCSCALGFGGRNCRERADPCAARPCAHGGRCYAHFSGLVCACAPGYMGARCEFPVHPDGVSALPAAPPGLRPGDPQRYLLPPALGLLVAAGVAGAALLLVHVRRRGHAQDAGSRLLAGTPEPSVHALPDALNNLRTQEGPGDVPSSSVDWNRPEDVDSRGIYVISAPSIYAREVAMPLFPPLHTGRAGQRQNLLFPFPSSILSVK

Sequence of human DLL3 on SHP-77 cells (human) (Q9NYJ7 27-618): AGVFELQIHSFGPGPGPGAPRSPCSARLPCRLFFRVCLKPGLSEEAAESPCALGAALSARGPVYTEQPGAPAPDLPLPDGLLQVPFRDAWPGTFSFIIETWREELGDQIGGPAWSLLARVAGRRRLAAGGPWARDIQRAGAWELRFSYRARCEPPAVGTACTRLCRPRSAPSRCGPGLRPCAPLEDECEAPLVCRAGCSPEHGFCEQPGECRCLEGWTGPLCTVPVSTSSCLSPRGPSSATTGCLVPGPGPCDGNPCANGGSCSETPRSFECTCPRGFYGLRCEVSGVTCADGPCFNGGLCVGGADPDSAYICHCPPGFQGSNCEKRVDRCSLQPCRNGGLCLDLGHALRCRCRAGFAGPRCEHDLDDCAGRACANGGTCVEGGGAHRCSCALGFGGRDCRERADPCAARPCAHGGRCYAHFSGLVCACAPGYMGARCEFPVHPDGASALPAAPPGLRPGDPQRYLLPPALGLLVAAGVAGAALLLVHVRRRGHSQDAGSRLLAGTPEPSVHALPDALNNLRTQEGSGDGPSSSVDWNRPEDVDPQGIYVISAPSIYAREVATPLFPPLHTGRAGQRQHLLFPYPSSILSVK

Negative control antibody
Top MFI [1]: 92 MFI | Top MFI [2]: 104 MFI
